According to ChEMBL document CHEMBL3525993, “Identification of multiple binding sites for substrate transport in bovine organic anion transporting polypeptide 1a2” (Drug Metab Dispos, 2013):

T1: OATP1A2 (Homo sapiens, UniProt P46721)
T1 sequence (P46721 whole entry): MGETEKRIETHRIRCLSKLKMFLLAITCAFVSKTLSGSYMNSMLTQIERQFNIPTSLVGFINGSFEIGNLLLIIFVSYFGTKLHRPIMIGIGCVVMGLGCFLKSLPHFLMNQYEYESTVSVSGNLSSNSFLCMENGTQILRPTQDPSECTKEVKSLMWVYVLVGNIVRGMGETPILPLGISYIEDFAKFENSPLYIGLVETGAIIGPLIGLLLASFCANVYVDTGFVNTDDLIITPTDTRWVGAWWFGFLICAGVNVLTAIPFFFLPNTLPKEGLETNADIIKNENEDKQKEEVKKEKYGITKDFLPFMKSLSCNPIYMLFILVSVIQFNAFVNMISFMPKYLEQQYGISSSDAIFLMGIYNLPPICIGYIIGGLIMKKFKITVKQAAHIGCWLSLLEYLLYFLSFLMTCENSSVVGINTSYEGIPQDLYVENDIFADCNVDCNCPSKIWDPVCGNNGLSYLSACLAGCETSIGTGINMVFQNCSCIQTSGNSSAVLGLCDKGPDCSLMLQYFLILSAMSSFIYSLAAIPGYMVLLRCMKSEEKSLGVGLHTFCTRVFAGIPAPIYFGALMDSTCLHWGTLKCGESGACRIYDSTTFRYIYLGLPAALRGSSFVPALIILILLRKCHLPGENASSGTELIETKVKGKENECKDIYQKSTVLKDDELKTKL

T2: Solute carrier organic anion transporter family member 1A2 (Homo sapiens, UniProt P46721)
T2 sequence (P46721 whole entry): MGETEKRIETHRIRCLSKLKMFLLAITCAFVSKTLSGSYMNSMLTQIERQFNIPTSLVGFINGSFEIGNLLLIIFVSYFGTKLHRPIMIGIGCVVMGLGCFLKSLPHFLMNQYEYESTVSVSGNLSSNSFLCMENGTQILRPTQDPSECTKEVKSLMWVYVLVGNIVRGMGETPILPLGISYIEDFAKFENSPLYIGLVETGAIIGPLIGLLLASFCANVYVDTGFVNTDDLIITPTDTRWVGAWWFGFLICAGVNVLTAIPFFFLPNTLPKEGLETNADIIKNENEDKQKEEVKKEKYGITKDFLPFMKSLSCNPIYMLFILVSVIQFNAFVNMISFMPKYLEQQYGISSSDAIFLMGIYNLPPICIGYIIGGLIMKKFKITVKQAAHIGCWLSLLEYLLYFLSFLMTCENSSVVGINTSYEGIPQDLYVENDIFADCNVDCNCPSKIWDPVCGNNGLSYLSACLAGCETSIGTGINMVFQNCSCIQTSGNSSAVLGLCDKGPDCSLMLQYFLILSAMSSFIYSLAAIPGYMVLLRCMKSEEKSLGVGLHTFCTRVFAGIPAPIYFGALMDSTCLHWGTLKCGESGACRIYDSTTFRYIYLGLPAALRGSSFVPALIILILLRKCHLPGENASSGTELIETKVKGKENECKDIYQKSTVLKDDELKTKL


Tests used:
OATP1A2 [1] = target: T1, OATP1A2; assay: Cellular uptake in Xenopus oocytes cells assessed as OATP1A2 (unknown origin)-mediated drug uptake; type: ADME, cell-based, Oocyte; details: Xenopus oocytes expressing OATP1A2
[2] = target: T2, Solute carrier organic anion transporter family member 1A2; assay: (§1) Cellular uptake in HEK293 cells assessed as human OATP1A2-mediated drug uptake at 0.05 uM after 1 min by Eadie-Hofstee plot analysis; type: ADME, cell-based; details: hek293, 1 min, 0.05 µM
OATP1A2 [3] = target: T1, OATP1A2; assay: as §1; type: ADME, cell-based; details: HEK293 cells expressing human OATP1A2
[4] = substrate: C[C@]12CC[C@@H]3c4ccc(OS(=O)(=O)O)cc4CC[C@H]3[C@@H]1CCC2=O; assay: Cellular uptake in HEK293 cells assessed as bovine low affinity site of OATP1A2-mediated drug uptake at 0.01 to 50 uM after 1 min by Eadie-Hofstee plot analysis; type: ADME, cell-based, Bos taurus
[5] = substrate: C[C@]12CC[C@@H]3c4ccc(OS(=O)(=O)O)cc4CC[C@H]3[C@@H]1CCC2=O; assay: Cellular uptake in HEK293 cells assessed as bovine high affinity site of OATP1A2-mediated drug uptake at 0.01 to 50 uM after 1 min by Eadie-Hofstee plot analysis; type: ADME, cell-based, Bos taurus

Molecule | Km (OATP1A2 [1]) [µM] | Vmax [2] [pmol/mg/min] | Km at 1 min (OATP1A2 [3]) [µM] | Km [4] [µM] | Vmax [4] [µmol/min/mg] | Km [5] [µM] | Vmax [5] [µmol/min/mg]
C[C@]12CC[C@@H]3c4ccc(OS(=O)(=O)O)cc4CC[C@H]3[C@@H]1CCC2=O [ESTRONE SULFURIC ACID] | 9.6 | 39.4 | 16.1 | – | – | – | –
Solute carrier organic anion transporter family member (Bos taurus) (protein) MGETEERIETHRIRCLSKLKMFLLAITCAFVSKTLSGSYMNSMITQIERQFNIPTSLVGFINGSFEIGNLLLIIFVSYFGTKLHRPIMIGVGCVVMGLGCFLQSLPHFLMGRYEYESTVSVSGNLSSNSFLCMENGTQIFKPTKDPSECVKEVKSLMWVYVLVGNIIRGIGETPIMPLGISYIEDFAKFENSPLYIGLIKTGGIIGPLIGLSLASFCANVYVDTESVNTDDLTITPSDTRWVGAWWIGFLICAGVNVLTAIPFFFLPKTLPKEGLEENAEIIKNDKEKQEDIKKKRDAITKDFLPFMKSLLCNPIYMLFILISVLQFNAFVSMVSFMPKYMEQHYGKSASEAIFLLGIYNFPPICIGYIVGGLFMKKFKITAVQAAHIGCWLSFTEYLLHFLCFFMICDSSSVAGLTTSYEGIHQNLRVKNFLADCNMDCNCPTKVWDPVCGNNGLSYTSACLAGCEISSGTGRKMVFQNCSCIQTPGNSSAVLGLCDKGKDCSMMLQYFLILSVFSSFIFSLSAIPGYMVLLRCVKPEEKSLGVGLHAFCTRVLAGIPAPIYFGALVDSTCLHWGTLKCGESGACRIYDSNSFRYIYLGIPAALRGSSYIPAFLILFILRKYRLPGENASSETMLVAKFTGKENEGKEMDQNAKVLNDDELKTKL | – | – | – | 46.6 | 0.000375 | 0.25 | 2.45e-05
